Measurements from PMC3730230.
Several values for one entry are separate records, joined by “and”; a condition that tells them apart may be missing. Identical values can stand only once.

Molecular target: EGFR 1045+ add-back mutant (pY-null 9Y- backbone with Y1045 added back) (human) (UniProt P00533)
Assay: co-IP

In the case of “Cbl, endogenous in NR6 cells (from UniProt P22682 1-913) (enzyme)”, the fold reduction of association against EGFR-WT is reported as 4 fold and 5 fold.
